# Test results published in publication PMC7055300, “Theileria parasites subvert E2F signaling to stimulate leukocyte proliferation” (Scientific Reports, 2020).
# Biological target: human Retinoblastoma-1 (RB) pocket domain (human) (UniProt P06400)
# Assay: SPR
# Sequence of human Retinoblastoma-1 (RB) pocket domain (human) (P06400 373-771): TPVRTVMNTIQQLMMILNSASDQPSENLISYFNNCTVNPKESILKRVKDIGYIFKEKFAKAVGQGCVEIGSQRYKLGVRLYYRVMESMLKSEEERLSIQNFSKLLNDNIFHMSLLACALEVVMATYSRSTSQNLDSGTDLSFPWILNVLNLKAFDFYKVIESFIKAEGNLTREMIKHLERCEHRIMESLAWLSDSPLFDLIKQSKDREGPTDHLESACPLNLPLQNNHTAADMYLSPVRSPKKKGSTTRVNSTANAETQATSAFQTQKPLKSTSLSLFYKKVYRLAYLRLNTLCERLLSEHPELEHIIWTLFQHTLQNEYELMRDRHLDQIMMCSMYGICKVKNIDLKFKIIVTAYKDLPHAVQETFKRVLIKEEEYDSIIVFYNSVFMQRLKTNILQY
substance,measurement,value
"full-length, recombinant TpGcpE protein (TpMuguga_02g00667) (natural protein)",Kd,18.7 nM
